The assay addresses HCEC protein fraction. In words: ELISA on the coated protein fraction, lysate treated or not with neuraminidase.

For the substance “FC5 llama single-domain antibody (sdAb), expressed in fusion with His5 and c-myc tags (VHH)”, the reduction of binding after neuraminidase treatment of the lysate stood at 50%.

These data come from patent US20110097739A1.
